Where two headings read alike, the source gives them in different places.
Key:
[1] = molecular target: T1, PD-1 (antigen of the ELISA and of the in vitro affinity measurement) (UniProt Q15116 25-167, limits assumed); experiment: ELISA
[2] = molecular target: T1, PD-1 (antigen of the ELISA and of the …); experiment: ELISA on PD-1
[3] = molecular target: T1, PD-1 (antigen of the ELISA and of the …); experiment: ELISA on PD-1; remark: listed apart in the source
[4] = molecular target: T1, PD-1 (antigen of the ELISA and of the …); experiment: ELISA on PD-1; remark: listed apart in the source
[5] = molecular target: T1, PD-1 (antigen of the ELISA and of the …); experiment: ELISA on PD-1; remark: listed apart in the source
[6] = molecular target: T2, PD-1 shown on cells (Raji-PD-1 cells); CD3/CD28 activated human CD8+ T cells; PD-1 effector cells of the … (human, UniProt Q15116 25-288); experiment: cell-based or functional assay
T2 sequence (Q15116 25-288): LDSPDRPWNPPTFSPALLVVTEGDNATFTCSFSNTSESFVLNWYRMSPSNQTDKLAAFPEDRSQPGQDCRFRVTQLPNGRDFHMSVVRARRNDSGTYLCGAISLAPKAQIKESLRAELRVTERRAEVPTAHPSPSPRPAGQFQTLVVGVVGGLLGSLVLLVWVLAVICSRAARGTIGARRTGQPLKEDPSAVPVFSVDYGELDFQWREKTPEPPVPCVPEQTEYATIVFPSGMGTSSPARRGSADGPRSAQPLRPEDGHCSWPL

[7] = molecular target: T2, PD-1 shown on cells (Raji-PD-1 cells; …); experiment: cell-based or functional assay; remark: listed apart in the source
[8] = molecular target: T2, PD-1 shown on cells (Raji-PD-1 cells; …); experiment: cell-based or functional assay; remark: listed apart in the source
[9] = molecular target: T2, PD-1 shown on cells (Raji-PD-1 cells; …); experiment: flow cytometry, on-cell binding to PD-1 expressing Raji cells, anti-human IgG-PE
[10] = molecular target: T2, PD-1 shown on cells (Raji-PD-1 cells; …); experiment: as above; remark: listed apart in the source
[11] = molecular target: T2, PD-1 shown on cells (Raji-PD-1 cells; …); experiment: as above; remark: listed apart in the source
[12] = molecular target: T2, PD-1 shown on cells (Raji-PD-1 cells; …); experiment: flow cytometry on CD3+CD8+ T cells within CD3/CD28 activated human PBMCs, 1 h at 4 C, anti-human IgG PE, % anti-hIgG+; table CD8+ T cells under the graph
Protocol: Mixed donor lots of human peripheral blood mononuclear cells (PBMCs) were thawed and seeded in medium (RPMI1640, 10% fetal bovine serum (FBS), 2 mM 1-Glutamine, 50 U/mL penicillin, 50 μg/mL streptomycin, 1 μM each of non-essential amino acids, 10 mM HEPES, 1 mM sodium pyruvate, 55 μM B-mercaptoethanol, 10 μg/mL gentamycin) into tissue culture treated plates that were coated for 1 h at 37° C. with 1 μg/ml anti-CD3. Anti-CD28 was added in solution at a concentration of 5 μg/ml. Two days later the PBMCs were collected and transferred into a 96 well v-bottom plate at 100,000 cells per well in FACS Buffer (2% FBS in phosphate buffered saline (PBS)). Test articles were diluted to twice the indicated concentration in FACS buffer. Test articles were added to cells at a 1:1 ratio to the final concentration indicated in the figure and incubated for 1 h at 4° C. The cells were washed three times with FACS buffer and fixed in 4% PFA. Cells were then washed once in FACS buffer. All cells were stained in 100 μL of indicated molecules in FACS buffer for 1 h at 4° C. The cells were washed three times with FACS buffer and fixed in 4% paraformaldehyde (PFA). All cells were subsequently stained in 100 μL with anti-human IgG PE, anti-CD3 PE/Dazzle 594, anti-CD45 PerCP Cy5.5, anti-CD8 BV510, and anti-CD4 BV421 for 30 minutes. Cells were washed twice to remove unbound antibody and analyzed on the BD Celesta by gating on CD3+CD8+ T cells.

T1 sequence (Q15116 25-167 limits assumed): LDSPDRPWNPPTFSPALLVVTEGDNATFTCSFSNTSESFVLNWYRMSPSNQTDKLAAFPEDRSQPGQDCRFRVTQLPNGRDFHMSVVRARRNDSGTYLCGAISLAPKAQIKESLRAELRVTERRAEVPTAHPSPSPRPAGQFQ

Kd [1]: 330 pM
EC50 (read off the curve) [2]: ~200 pM
EC50 (read off the curve) [3]: ~200 pM
EC50 (read off the curve) [4]: ~200 pM
Kd [5]: 180 pM
EC50 (read off the curve) [6]: ~1000 pM
EC50, PD-1/PD-L1 blockade RGA (NFAT fold induction) [7]: 1340 pM
EC50, PD-1/PD-L1 blockade RGA (NFAT fold induction) [8]: 1470 pM
EC50 (read off the curve) [9]: ~700 pM
EC50 (read off the curve) [10]: ~700 pM
EC50 [11]: 800 pM
EC50 [12]: 90 pM
B1: TC46 (Fc fusion)
heavy 1: QVQLVQSGVEVKKPGASVKVSCKASGYTFTNYYMYWVRQAPGQGLEWMGGINPSNGGTNFNEKFKNRVTLTTDSSTTTAYMELKSLQFDDTAVYYCARRDYRFDMGFDYWGQGTTVTVSSASTKGPSVFPLAPSSKSTSGGTAALGCLVKDYFPEPVTVSWNSGALTSGVHTFPAVLQSSGLYSLSSVVTVPSSSLGTQTYICNVNHKPSNTKVDKKVEPKSCDKTHTCPPCPAPELLGGPSVFLFPPKPKDTLMISRTPEVTCVVVDVSHEDPEVKFNWYVDGVEVHNAKTKPREEQYASTYRVVSVLTVLHQDWLNGKEYKCKVSNKALPAPIEKTISKAKGQPREPQVYTLPPCRDELTKNQVSLWCLVKGFYPSDIAVEWESNGQPENNYKTTPPVLDSDGSFFLYSKLTVDKSRWQQGNVFSCSVMHEALHNRFTQKSLSLSPGGGSSPPGGGSSGGGSGPAPTSSSTKKTQLQLEHLLLDLQMILNGINNYKNPKLTAMLTAKFAMPKKATELKHLQCLEEALKPLEEVLNLAQSKNFHLRPRDLISNINVIVLELKGSETTFMCEYADETATIVEFLNRWITFAQSIISTLT
heavy 2: QVQLVQSGVEVKKPGASVKVSCKASGYTFTNYYMYWVRQAPGQGLEWMGGINPSNGGTNFNEKFKNRVTLTTDSSTTTAYMELKSLQFDDTAVYYCARRDYRFDMGFDYWGQGTTVTVSSASTKGPSVFPLAPSSKSTSGGTAALGCLVKDYFPEPVTVSWNSGALTSGVHTFPAVLQSSGLYSLSSVVTVPSSSLGTQTYICNVNHKPSNTKVDKKVEPKSCDKTHTCPPCPAPELLGGPSVFLFPPKPKDTLMISRTPEVTCVVVDVSHEDPEVKFNWYVDGVEVHNAKTKPREEQYASTYRVVSVLTVLHQDWLNGKEYKCKVSNKALPAPIEKTISKAKGQPREPQVCTLPPSRDELTKNQVSLSCAVKGFYPSDIAVEWESNGQPENNYKTTPPVLDSDGSFFLVSKLTVDKSRWQQGNVFSCSVMHEALHNHYTQKSLSLSPGGPPSGSSPMPYDLYHPSGGGAVNGTSQFTCFYNSRANISCVWSQDGALQDTSCQVHAWPDRRRWNQTCELLPVSQASWACNLILGAPDSQKLTTVDIVTLRVLCREGVRWRVMAIQDFKPFENLRLMAPISLQVVHVETHRACISWEISQASHYFERHLEFEARTLSPGHTWEEAPLLTLKQKQEWICLETLTPDTQYEFQVRVKPLQGEFTTWSPWSQPLAFRTKPAALGKD
light: EIVLTQSPATLSLSPGERATLSCRASKGVSTSGYSYLHWYQQKPGQAPRLLIYLASYLESGVPARFSGSGSGTDFTLTISSLEPEDFAVYYCQHSRDLPLTFGGGTKVEIKRTVAAPSVFIFPPSDEQLKSGTASVVCLLNNFYPREAKVQWKVDNALQSGNSQESVTEQDSKDSTYSLSSTLTLSKADYEKHKVYACEVTHQGLSSPVTKSFNRGEC
notes: Mask CD122 (C122A, N123C); also called PembroFab-IgG1 (N297A, MST, RF)-CD122*

— patent US20230365641A1 (XILIO DEVELOPMENT, published 2023)
